Experiment: in vivo
Details: female, mouse, iv, 1 MBq, total radioactivity; for tissue uptake at 24 h / tissue uptake at 72 h / tissue uptake at 48 h / tissue uptake at 192 h: athymic NMRI-Foxn1^nu/Foxn1^nu
From the text: For in vivo experiments, at least 8-week-old female athymic NMRI-Foxn1^nu/Foxn1^nu mice (Janvier Labs, Saint-Berthevin, France) were used. Animal care followed institutional guidelines and all experiments were approved by local animal research authorities. For the generation of tumor xenografts, 5 x 10^6 cells of Capan-2 cells were inoculated subcutaneously into the left and right shoulder (1:1 phosphate-buffered saline [PBS]/Matrigel Basement Membrane Matrix High Concentration, Corning, Corning, USA). Tumors were allowed to grow for two to four weeks (tumor volume > 100 mm^3) after cell inoculation.
Radiolabeling of the DOTA-integrin αvβ6 knottin was carried out manually using [^177Lu]LuCl3 and a reagent kit from ITG Isotope Technologies Garching GmbH (Garching, Germany). A total of 40 µL (stock solution of peptide at 1 µg/µL in 10% DMSO in water) was added to 500 µL of ascorbate buffer solution pH 5.0, prepared from the kit (composition not disclosed by vendor) and the resulting mixture was then added to 35 µL of [^177Lu]LuCl3 (2 GBq in aqueous 0.04 M HCl) and the reaction mixture was heated at 80 °C for 35 minutes followed by cooling for 10 minutes at room temperature. The product was then diluted with 0.5 mL of saline and the pH was adjusted to 7 using a 1 M aqueous solution of NaHCO3 prior to injection in mice. A reverse-phase HPLC system (Knauer GmbH, Germany) with a column (Eurospher II, C18, 250 × 4 mm) was used to determine the radiochemical purity of the radiotracer. The HPLC system was equipped with an Azura P.6.1L pump coupled with ultraviolet (Azura UVD 2.1L) and radiometric (γ-Raytest-Isotopenmessgeraete GmbH, Germany) detectors. The gradient elution system used mobile phase A (100% acetonitrile) and mobile phase B (deionized H2O containing 0.1% trifluoroacetic acid) and a flow rate of 1.0 mL/min. Starting with 0% A and 100% B, the gradient was increased to 100% A over 25 min and finally returned to initial gradient conditions within 5 min.
Tumor-bearing mice (n=4-5 per time point) were injected with approximately 1 MBq (22 pmol) of ^177Lu-DOTA-integrin αvβ6 knottin to the tail vein via a catheter. Mice (n=4-5 per time point) were sacrificed and dissected one, two, three and eight days post injection. Tumor, blood, stomach, pancreas, small intestine, colon, liver, spleen, kidney, heart, lung, muscle and femur samples were weighed and uptake of radioactivity was measured by a gamma counter.

[1] = NMRI-Foxn1^nu/Foxn1^nu (athymic nude), tumor/pancreas

## CC[C@H](C)[C@@H]1NC(=O)[C@@H](NC(=O)CNC(=O)CN2CCN(CC(=O)O)CCN(CC(=O)O)CCN(CC(=O)O)CC2)CSSC[C@@H]2NC(=O)[C@H](C)NC(=O)CNC(=O)[C@@H]3CCCN3C(=O)[C@@H]3CSSC[C@@H](C(=O)NCC(=O)O)NC(=O)[C@H](Cc4ccc(O)cc4)NC(=O)CNC(=O)[C@H](CC(N)=O)NC(=O)CNC(=O)[C@H](CCCNC(=N)N)NC(=O)[C@H](CSSC[C@H](NC(=O)[C@H](CCCNC(=N)N)NC(=O)[C@H](Cc4ccccc4)NC(=O)[C@H](CC(C)C)NC(=O)[C@H](CC(C)C)NC(=O)[C@H]([C@@H](C)O)NC(=O)CNC(=O)[C@H](CC(C)C)NC(=O)[C@H](CC(=O)O)NC(=O)[C@H]([C@@H](C)O)NC(=O)[C@H](CCCNC(=N)N)NC(=O)CNC(=O)[C@H](CC(N)=O)NC(=O)[C@H](CC(C)C)NC1=O)C(=O)N[C@@H](CCCNC(=N)N)C(=O)N[C@@H](CCCNC(=N)N)C(=O)N[C@@H](CC(=O)O)C(=O)N[C@@H](CO)C(=O)N[C@@H](CC(=O)O)C(=O)N3)NC(=O)[C@H]([C@@H](C)CC)NC2=O [^177Lu-DOTA-integrin αvβ6 knottin, metal not drawn]
NMRI-Foxn1^nu/Foxn1^nu (athymic nude), tumor/muscle
  tissue to tissue ratio at 192 h: 32.9
[1]
  tissue to tissue ratio at 24 h: 13.1
  tissue to tissue ratio at 48 h: 15.6
  tissue to tissue ratio at 72 h: 27
  tissue to tissue ratio at 192 h: 38.7
blood, Blood activity, 24 h p.i., ~1 MBq i.v., nude mice, Capan-2 xenografts, mean ± SD (4 ≤ n ≤ 5)
  tissue uptake at 24 h: 0.01 %ID/g
blood, Blood activity, 72 h p.i., ~1 MBq i.v., nude mice, Capan-2 xenografts, mean ± SD (4 ≤ n ≤ 5)
  tissue uptake at 72 h: 0.01 %ID/g
femur, Femur uptake, 24 h p.i., ~1 MBq i.v., nude mice, Capan-2 xenografts, mean ± SD (4 ≤ n ≤ 5)
  tissue uptake at 24 h: 0.3 %ID/g
femur, Femur uptake, 48 h p.i., ~1 MBq i.v., nude mice, Capan-2 xenografts, mean ± SD (4 ≤ n ≤ 5)
  tissue uptake at 48 h: 0.45 %ID/g
femur, Femur uptake, 72 h p.i., ~1 MBq i.v., nude mice, Capan-2 xenografts, mean ± SD (4 ≤ n ≤ 5)
  tissue uptake at 72 h: 0.13 %ID/g
femur, Femur uptake, 192 h p.i., ~1 MBq i.v., nude mice, Capan-2 xenografts, mean ± SD (4 ≤ n ≤ 5)
  tissue uptake at 192 h: 0.07 %ID/g
heart, Heart uptake, 24 h p.i., ~1 MBq i.v., nude mice, Capan-2 xenografts, mean ± SD (4 ≤ n ≤ 5)
  tissue uptake at 24 h: 0.16 %ID/g
heart, Heart uptake, 48 h p.i., ~1 MBq i.v., nude mice, Capan-2 xenografts, mean ± SD (4 ≤ n ≤ 5)
  tissue uptake at 48 h: 0.07 %ID/g
heart, Heart uptake, 72 h p.i., ~1 MBq i.v., nude mice, Capan-2 xenografts, mean ± SD (4 ≤ n ≤ 5)
  tissue uptake at 72 h: 0.08 %ID/g
heart, Heart uptake, 192 h p.i., ~1 MBq i.v., nude mice, Capan-2 xenografts, mean ± SD (4 ≤ n ≤ 5)
  tissue uptake at 192 h: 0.04 %ID/g
kidney, Kidney uptake, 24 h p.i., ~1 MBq i.v., nude mice, Capan-2 xenografts, mean ± SD (4 ≤ n ≤ 5)
  tissue uptake at 24 h: 19.2 %ID/g
kidney, Kidney uptake, 48 h p.i., ~1 MBq i.v., nude mice, Capan-2 xenografts, mean ± SD (4 ≤ n ≤ 5)
  tissue uptake at 48 h: 12.5 %ID/g
kidney, Kidney uptake, 72 h p.i., ~1 MBq i.v., nude mice, Capan-2 xenografts, mean ± SD (4 ≤ n ≤ 5)
  tissue uptake at 72 h: 14.7 %ID/g
kidney, Kidney uptake, 192 h p.i., ~1 MBq i.v., nude mice, Capan-2 xenografts, mean ± SD (4 ≤ n ≤ 5)
  tissue uptake at 192 h: 2.28 %ID/g
kidney, Kidney uptake, day 1 p.i., ~1 MBq i.v., Capan-2 xenograft mice
  tissue uptake at 24 h: 19.2 ± 2.5 %ID/g
kidney, Kidney uptake, day 3 p.i., ~1 MBq i.v., Capan-2 xenograft mice
  tissue uptake at 72 h: 14.7 ± 4.5 %ID/g
kidney, Kidney uptake, day 8 p.i., ~1 MBq i.v., Capan-2 xenograft mice
  tissue uptake at 192 h: 2.3 ± 0.4 %ID/g
lung, Lung uptake, 24 h p.i., ~1 MBq i.v., nude mice, Capan-2 xenografts, mean ± SD (4 ≤ n ≤ 5)
  tissue uptake at 24 h: 1.74 %ID/g
lung, Lung uptake, 48 h p.i., ~1 MBq i.v., nude mice, Capan-2 xenografts, mean ± SD (4 ≤ n ≤ 5)
  tissue uptake at 48 h: 0.53 %ID/g
lung, Lung uptake, 72 h p.i., ~1 MBq i.v., nude mice, Capan-2 xenografts, mean ± SD (4 ≤ n ≤ 5)
  tissue uptake at 72 h: 0.52 %ID/g
lung, Lung uptake, 192 h p.i., ~1 MBq i.v., nude mice, Capan-2 xenografts, mean ± SD (4 ≤ n ≤ 5)
  tissue uptake at 192 h: 0.06 %ID/g
muscle, Muscle uptake, 24 h p.i., ~1 MBq i.v., nude mice, Capan-2 xenografts, mean ± SD (4 ≤ n ≤ 5)
  tissue uptake at 24 h: 0.26 %ID/g
muscle, Muscle uptake, 48 h p.i., ~1 MBq i.v., nude mice, Capan-2 xenografts, mean ± SD (4 ≤ n ≤ 5)
  tissue uptake at 48 h: 0.11 %ID/g
muscle, Muscle uptake, 72 h p.i., ~1 MBq i.v., nude mice, Capan-2 xenografts, mean ± SD (4 ≤ n ≤ 5)
  tissue uptake at 72 h: 0.1 %ID/g
muscle, Muscle uptake, 192 h p.i., ~1 MBq i.v., nude mice, Capan-2 xenografts, mean ± SD (4 ≤ n ≤ 5)
  tissue uptake at 192 h: 0.04 %ID/g
pancreas, Pancreas uptake, 24 h p.i., ~1 MBq i.v., nude mice, Capan-2 xenografts, mean ± SD (4 ≤ n ≤ 5)
  tissue uptake at 24 h: 0.65 %ID/g
pancreas, Pancreas uptake, 48 h p.i., ~1 MBq i.v., nude mice, Capan-2 xenografts, mean ± SD (4 ≤ n ≤ 5)
  tissue uptake at 48 h: 0.17 %ID/g
pancreas, Pancreas uptake, 72 h p.i., ~1 MBq i.v., nude mice, Capan-2 xenografts, mean ± SD (4 ≤ n ≤ 5)
  tissue uptake at 72 h: 0.29 %ID/g
pancreas, Pancreas uptake, 192 h p.i., ~1 MBq i.v., nude mice, Capan-2 xenografts, mean ± SD (4 ≤ n ≤ 5)
  tissue uptake at 192 h: 0.03 %ID/g
spleen, Spleen uptake, 192 h p.i., ~1 MBq i.v., nude mice, Capan-2 xenografts, mean ± SD (4 ≤ n ≤ 5)
  tissue uptake at 192 h: 0.04 %ID/g
stomach, Stomach uptake, 24 h p.i., ~1 MBq i.v., nude mice, Capan-2 xenografts, mean ± SD (4 ≤ n ≤ 5)
  tissue uptake at 24 h: 1.92 %ID/g
stomach, Stomach uptake, 48 h p.i., ~1 MBq i.v., nude mice, Capan-2 xenografts, mean ± SD (4 ≤ n ≤ 5)
  tissue uptake at 48 h: 1.01 %ID/g
stomach, Stomach uptake, 72 h p.i., ~1 MBq i.v., nude mice, Capan-2 xenografts, mean ± SD (4 ≤ n ≤ 5)
  tissue uptake at 72 h: 0.83 %ID/g
stomach, Stomach uptake, 192 h p.i., ~1 MBq i.v., nude mice, Capan-2 xenografts, mean ± SD (4 ≤ n ≤ 5)
  tissue uptake at 192 h: 0.14 %ID/g
tail, Tail activity, 24 h p.i., ~1 MBq i.v., nude mice, Capan-2 xenografts, mean ± SD (4 ≤ n ≤ 5)
  tissue uptake at 24 h: 0.31 %ID/g
tail, Tail activity, 48 h p.i., ~1 MBq i.v., nude mice, Capan-2 xenografts, mean ± SD (4 ≤ n ≤ 5)
  tissue uptake at 48 h: 0.2 %ID/g
tumor, Tumor uptake, 24 h p.i., ~1 MBq (22 pmol) i.v., nude mice, Capan-2 xenografts, mean ± SD (4 ≤ n ≤ 5)
  tissue uptake at 24 h: 3.13 %ID/g
tumor, Tumor uptake, day 1 p.i., ~1 MBq i.v., Capan-2 xenografts, mean ± S.E.M.
  tissue uptake at 24 h: 3.1 ± 0.6 %ID/g
tumor, Tumor uptake, day 2 p.i., ~1 MBq i.v., Capan-2 xenografts, mean ± S.E.M.
  tissue uptake at 48 h: 2.5 ± 0.4 %ID/g
tumor, Tumor uptake, day 3 p.i., ~1 MBq i.v., Capan-2 xenografts, mean ± S.E.M.
  tissue uptake at 72 h: 3.5 ± 0.9 %ID/g
tumor, Tumor uptake, day 8 p.i., ~1 MBq i.v., Capan-2 xenografts, mean ± S.E.M.
  tissue uptake at 192 h: 1.2 ± 0.2 %ID/g

Reference: article PMC8200818, “SPECT/CT Imaging, Biodistribution and Radiation Dosimetry of a ^177Lu-DOTA-Integrin αvβ6 Cystine Knot Peptide in a Pancreatic Cancer Xenograft Model” (Frontiers in Oncology, 2021)
